From the supplement of paper PMC10065799, “High-throughput profiling of sequence recognition by tyrosine kinases and SH2 domains using bacterial peptide display” (eLife, 2023)

Experiments:
[1] = target: SHP2-C SH2; assay: SH2 binding enrichment of the phosphorylated peptide, bacterial display (enrichment ratio); higher = better substrate or ligand; peptides without Tyr show the background
[2] = target: c-Src SH2; assay: as above
[3] = target: Grb2 SH2 (UniProt P62993); assay: as above
[4] = target: Fes (UniProt P07332); assay: phosphorylation enrichment, bacterial display (enrichment ratio); higher = better substrate or ligand; peptides without Tyr show the background
[5] = target: EPHB1 (UniProt P54762); assay: as above
Chain of EPHB1 (P54762 whole entry, looked up): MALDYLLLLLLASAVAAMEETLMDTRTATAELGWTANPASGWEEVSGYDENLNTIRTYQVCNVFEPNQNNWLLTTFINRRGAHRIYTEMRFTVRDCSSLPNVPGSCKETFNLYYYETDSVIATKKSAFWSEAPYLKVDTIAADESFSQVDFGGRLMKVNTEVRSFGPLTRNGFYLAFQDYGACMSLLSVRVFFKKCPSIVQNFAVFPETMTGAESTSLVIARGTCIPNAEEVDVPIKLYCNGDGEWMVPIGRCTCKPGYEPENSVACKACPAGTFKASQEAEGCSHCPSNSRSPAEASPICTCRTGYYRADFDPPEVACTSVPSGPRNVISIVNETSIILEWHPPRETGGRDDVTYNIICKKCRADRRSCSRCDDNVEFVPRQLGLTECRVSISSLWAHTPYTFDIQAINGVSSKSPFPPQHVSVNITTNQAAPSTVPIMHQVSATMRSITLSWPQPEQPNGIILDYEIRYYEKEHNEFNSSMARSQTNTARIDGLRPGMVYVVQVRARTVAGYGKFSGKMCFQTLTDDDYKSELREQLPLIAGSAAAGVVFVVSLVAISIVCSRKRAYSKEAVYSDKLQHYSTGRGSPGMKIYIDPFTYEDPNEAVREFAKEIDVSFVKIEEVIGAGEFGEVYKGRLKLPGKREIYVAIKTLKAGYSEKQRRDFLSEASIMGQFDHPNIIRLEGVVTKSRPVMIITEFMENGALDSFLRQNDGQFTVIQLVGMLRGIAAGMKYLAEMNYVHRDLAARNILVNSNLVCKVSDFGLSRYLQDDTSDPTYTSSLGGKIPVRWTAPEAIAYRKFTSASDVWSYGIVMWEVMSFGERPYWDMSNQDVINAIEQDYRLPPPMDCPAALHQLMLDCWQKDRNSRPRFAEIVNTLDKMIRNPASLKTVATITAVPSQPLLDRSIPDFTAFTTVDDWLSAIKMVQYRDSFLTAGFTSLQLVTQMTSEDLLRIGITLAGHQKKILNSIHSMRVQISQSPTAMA

[6] = target: EPHB2 (UniProt P29323); assay: as above
Chain of EPHB2 (P29323 whole entry, looked up): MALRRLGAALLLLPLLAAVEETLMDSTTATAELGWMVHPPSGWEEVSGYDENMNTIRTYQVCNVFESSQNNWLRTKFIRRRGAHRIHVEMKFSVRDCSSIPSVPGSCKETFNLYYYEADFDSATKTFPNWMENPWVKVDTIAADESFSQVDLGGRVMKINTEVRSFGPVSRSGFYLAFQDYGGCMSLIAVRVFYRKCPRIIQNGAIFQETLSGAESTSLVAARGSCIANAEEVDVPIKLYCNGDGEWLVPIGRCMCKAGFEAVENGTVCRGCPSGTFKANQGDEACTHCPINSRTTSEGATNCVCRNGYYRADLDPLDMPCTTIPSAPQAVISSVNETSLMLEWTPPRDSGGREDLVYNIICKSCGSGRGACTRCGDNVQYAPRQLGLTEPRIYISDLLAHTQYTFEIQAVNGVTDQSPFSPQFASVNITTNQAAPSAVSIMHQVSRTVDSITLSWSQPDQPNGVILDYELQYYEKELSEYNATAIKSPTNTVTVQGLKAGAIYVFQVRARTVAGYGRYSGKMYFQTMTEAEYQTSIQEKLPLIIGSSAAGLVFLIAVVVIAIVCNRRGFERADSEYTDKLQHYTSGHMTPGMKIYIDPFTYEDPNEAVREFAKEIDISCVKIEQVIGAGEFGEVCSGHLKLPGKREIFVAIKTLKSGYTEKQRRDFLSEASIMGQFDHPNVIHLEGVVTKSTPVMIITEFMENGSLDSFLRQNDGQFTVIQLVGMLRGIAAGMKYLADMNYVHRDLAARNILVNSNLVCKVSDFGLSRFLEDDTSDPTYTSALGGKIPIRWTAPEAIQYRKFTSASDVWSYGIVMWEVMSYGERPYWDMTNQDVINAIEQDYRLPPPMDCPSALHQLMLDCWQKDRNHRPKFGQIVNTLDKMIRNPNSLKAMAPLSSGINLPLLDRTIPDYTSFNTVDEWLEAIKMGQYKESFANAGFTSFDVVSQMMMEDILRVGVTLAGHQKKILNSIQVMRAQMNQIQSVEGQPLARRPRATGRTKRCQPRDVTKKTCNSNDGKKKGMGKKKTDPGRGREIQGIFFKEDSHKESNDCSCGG

[7] = system: AncSZ; assay: as above
[8] = target: FGFR3 (UniProt P22607); assay: as above
Chain of FGFR3 (P22607 whole entry, looked up): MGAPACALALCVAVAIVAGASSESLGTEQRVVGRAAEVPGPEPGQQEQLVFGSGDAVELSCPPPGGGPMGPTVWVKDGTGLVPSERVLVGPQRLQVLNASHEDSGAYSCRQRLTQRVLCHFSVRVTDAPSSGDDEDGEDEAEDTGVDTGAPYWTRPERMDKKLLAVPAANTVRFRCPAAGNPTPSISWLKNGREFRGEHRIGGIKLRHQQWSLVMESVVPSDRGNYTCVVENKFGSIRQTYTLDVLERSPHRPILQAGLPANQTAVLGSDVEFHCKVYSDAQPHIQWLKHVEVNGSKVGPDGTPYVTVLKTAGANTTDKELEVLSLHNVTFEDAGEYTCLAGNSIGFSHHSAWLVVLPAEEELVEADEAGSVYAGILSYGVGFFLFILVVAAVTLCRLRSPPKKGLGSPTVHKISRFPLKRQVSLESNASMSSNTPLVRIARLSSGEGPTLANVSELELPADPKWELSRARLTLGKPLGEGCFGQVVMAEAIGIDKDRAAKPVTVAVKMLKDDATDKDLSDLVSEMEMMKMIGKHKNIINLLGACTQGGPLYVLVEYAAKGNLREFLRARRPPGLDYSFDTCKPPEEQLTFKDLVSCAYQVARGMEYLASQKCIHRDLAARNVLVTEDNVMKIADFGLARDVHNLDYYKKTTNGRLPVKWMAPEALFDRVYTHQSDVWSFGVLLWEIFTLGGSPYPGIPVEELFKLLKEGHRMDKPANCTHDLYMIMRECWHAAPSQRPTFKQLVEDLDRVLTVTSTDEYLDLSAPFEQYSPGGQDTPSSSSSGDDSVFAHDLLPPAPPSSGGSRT

[9] = system: Fer (mouse); assay: as above
[10] = target: Fyn (UniProt P06241); assay: as above
[11] = target: MERTK (UniProt Q12866); assay: as above
Chain of MERTK (Q12866 whole entry, looked up): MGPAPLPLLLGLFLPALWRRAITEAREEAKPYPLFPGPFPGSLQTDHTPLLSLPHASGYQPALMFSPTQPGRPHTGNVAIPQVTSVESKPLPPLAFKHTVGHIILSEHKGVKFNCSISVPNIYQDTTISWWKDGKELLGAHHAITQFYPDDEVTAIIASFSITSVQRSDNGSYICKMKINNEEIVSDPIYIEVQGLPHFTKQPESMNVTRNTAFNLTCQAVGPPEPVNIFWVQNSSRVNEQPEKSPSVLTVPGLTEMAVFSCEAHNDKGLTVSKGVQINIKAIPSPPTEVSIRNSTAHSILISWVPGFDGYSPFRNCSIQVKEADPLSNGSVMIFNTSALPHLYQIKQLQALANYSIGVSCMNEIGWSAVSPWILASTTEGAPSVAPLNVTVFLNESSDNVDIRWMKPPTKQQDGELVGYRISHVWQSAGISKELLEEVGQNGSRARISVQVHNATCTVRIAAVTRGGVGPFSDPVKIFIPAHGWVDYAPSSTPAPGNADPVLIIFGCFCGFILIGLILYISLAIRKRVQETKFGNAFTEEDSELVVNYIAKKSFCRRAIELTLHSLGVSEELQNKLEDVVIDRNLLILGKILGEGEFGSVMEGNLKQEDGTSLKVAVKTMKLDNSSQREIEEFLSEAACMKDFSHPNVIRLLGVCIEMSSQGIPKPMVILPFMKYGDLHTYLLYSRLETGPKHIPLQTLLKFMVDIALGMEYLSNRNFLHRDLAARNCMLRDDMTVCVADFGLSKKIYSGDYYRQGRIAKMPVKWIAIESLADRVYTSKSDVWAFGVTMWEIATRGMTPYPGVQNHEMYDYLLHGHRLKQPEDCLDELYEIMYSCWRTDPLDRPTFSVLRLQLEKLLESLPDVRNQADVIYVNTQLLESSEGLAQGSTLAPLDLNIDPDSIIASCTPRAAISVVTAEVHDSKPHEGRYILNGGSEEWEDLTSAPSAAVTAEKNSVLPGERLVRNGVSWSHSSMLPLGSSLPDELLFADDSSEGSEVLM

[12] = system: c-Abl (mouse); assay: as above
[13] = target: Hck (UniProt P08631); assay: as above
[14] = target: Jak2 (UniProt O60674); assay: as above
Chain of Jak2 (O60674 whole entry, looked up): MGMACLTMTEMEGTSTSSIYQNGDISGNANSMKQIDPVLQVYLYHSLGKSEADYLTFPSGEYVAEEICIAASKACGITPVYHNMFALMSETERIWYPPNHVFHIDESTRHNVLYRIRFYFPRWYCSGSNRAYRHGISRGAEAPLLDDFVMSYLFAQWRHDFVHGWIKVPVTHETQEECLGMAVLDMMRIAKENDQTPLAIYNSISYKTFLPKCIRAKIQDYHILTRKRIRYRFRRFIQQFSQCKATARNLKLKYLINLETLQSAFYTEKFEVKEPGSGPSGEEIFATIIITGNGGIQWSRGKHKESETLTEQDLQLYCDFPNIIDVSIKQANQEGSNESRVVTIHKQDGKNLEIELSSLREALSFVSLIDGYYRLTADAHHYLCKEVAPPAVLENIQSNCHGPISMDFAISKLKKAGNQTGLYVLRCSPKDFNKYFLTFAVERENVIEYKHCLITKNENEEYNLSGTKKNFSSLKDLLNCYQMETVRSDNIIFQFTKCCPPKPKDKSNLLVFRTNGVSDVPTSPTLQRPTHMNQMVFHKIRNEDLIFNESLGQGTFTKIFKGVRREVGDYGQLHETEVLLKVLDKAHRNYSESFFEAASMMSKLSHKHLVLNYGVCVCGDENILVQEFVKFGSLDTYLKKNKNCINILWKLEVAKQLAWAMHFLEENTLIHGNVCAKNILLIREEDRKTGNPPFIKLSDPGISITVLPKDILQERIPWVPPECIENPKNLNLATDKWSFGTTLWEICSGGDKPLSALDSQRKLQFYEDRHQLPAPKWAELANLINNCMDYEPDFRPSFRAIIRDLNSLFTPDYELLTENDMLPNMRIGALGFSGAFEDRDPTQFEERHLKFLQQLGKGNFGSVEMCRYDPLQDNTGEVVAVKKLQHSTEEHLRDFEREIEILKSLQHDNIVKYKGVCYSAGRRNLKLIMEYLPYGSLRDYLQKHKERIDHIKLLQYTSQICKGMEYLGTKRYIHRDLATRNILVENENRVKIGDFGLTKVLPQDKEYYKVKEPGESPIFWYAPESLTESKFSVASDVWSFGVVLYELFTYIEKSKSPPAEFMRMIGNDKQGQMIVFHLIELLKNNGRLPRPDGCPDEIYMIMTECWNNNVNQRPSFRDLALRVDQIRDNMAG

[15] = system: c-Src; assay: as above
[16] = target: FGFR1 (UniProt P11362); assay: as above
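Wherever SH2 binding enrichment of the phosphorylated peptide, bacterial display is given: peptide library displayed on the E. coli surface as eCPX fusions, selected cells deep-sequenced, score is each peptide's frequency after selection divided by its frequency in the input.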
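Wherever phosphorylation enrichment, bacterial display is given: 11-residue human phosphosite peptides and single-mutation variants displayed on the E. coli surface, counted by deep sequencing, each peptide's frequency after selection divided by its frequency in the unselected input library; frequency after pTyr selection over input frequency; kinase dosed for 20-30% of maximal phosphorylation in three min.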

| Sequence | SH2 binding enrichment [1] | SH2 binding enrichment [2] | SH2 binding enrichment [3] | phosphorylation enrichment [4] | phosphorylation enrichment [5] | phosphorylation enrichment [6] | phosphorylation enrichment [7] | phosphorylation enrichment [8] | phosphorylation enrichment [9] | phosphorylation enrichment [10] | phosphorylation enrichment [11] | phosphorylation enrichment [12] | phosphorylation enrichment [13] | phosphorylation enrichment [14] | phosphorylation enrichment [15] | phosphorylation enrichment [16] |
| --- | --- | --- | --- | --- | --- | --- | --- | --- | --- | --- | --- | --- | --- | --- | --- | --- |
| TLRKTYGEMAD [ALB_Y108_E106K] | 0.537 | 0.449 | 0.788 | 0.709 | 0.307 | 0.355 | 0.535 | 0.51 | 0.379 | 0.387 | 0.381 | 0.462 | 0.433 | 0.752 | 0.419 | 0.508 |
| RKKLFYKADGE [SERPINC1_Y272_E269K] | 0.628 | 0.338 | 0.733 | 0.648 | 0.34 | 0.579 | 0.624 | 0.473 | 0.587 | 0.621 | 0.531 | 0.894 | 0.657 | 0.732 | 0.778 | 0.528 |
| RPGGRYPVARR [SHANK3_Y1569_S1566G] | 0.433 | 0.492 | 0.749 | 0.899 | 0.468 | 0.563 | 0.734 | 0.599 | 0.667 | 0.647 | 0.775 | 0.657 | 0.626 | 0.478 | 0.664 | 0.648 |
| VEDPEYAVTQP [STOML2_Y124_L129P] | 0.666 | 0.504 | 0.877 | 1.33 | 0.567 | 0.602 | 1.54 | 0.848 | 0.664 | 0.543 | 0.473 | 1 | 0.608 | 1.32 | 0.58 | 0.646 |
| TGILLHGLASR [QARS1_Y57_Y57H] | 0.801 | 0.593 | 0.783 | 0.629 | 0.28 | 0.328 | 0.417 | 0.379 | 0.218 | 0.281 | 0.419 | 0.528 | 0.301 | 0.488 | 0.469 | 0.367 |
| PQEVTYAQLDH [KIR3DL2_Y398] | 8.91 | 1.25 | 0.873 | 2.64 | 1.3 | 1.33 | 2.44 | 2.12 | 3.3 | 9.11 | 3.38 | 4.39 | 10.7 | 2.87 | 13.6 | 3.41 |
| AKRKNYAPVTM [CFAP47_Y557_A561T] | 1.16 | 1.19 | 1.03 | 0.518 | 0.365 | 0.364 | 0.459 | 0.34 | 0.286 | 0.387 | 0.431 | 0.454 | 0.371 | 0.351 | 0.445 | 0.418 |
| FADIAYNFRRG [PAH_Y166_H170R_YF] | 0.822 | 0.541 | 0.799 | 0.649 | 0.637 | 0.411 | 0.966 | 0.539 | 0.39 | 0.409 | 0.396 | 0.462 | 0.429 | 0.602 | 0.45 | 0.43 |
| EWLRGYLENGK [HLA-C_Y195_R194G] | 1.06 | 0.43 | 0.871 | 0.921 | 0.51 | 0.683 | 0.844 | 0.601 | 0.436 | 0.464 | 0.394 | 0.97 | 0.483 | 0.777 | 0.481 | 0.481 |
| QRIFQYIQSRF [DYRK1B_Y273_YF] | 1.17 | 0.9 | 1.15 | 1.45 | 0.707 | 0.356 | 1.09 | 0.619 | 0.693 | 0.502 | 0.728 | 0.583 | 0.572 | 1.58 | 0.557 | 0.416 |
| RQAQAYRGQRV [TSHR_Y706] | 0.665 | 0.385 | 0.691 | 1.51 | 0.564 | 0.99 | 1.82 | 1 | 0.909 | 1 | 0.831 | 1.25 | 0.839 | 1.62 | 1.36 | 1.23 |
| IFHLSYLHNCE [PDE6B_Y227_YF] | 0.894 | 0.862 | 1.18 | 1.26 | 0.589 | 0.566 | 0.985 | 0.856 | 0.562 | 0.546 | 0.436 | 0.782 | 0.512 | 0.956 | 0.431 | 0.494 |
| AQPHTYEEPGR [EPHA8_Y616_E612Q] | 0.794 | 14.5 | 1.08 | 0.729 | 0.519 | 0.577 | 0.74 | 0.46 | 0.458 | 0.481 | 0.394 | 0.465 | 0.46 | 0.83 | 0.452 | 0.459 |
| TDTQLYGRFGS [ITGA2B_Y384_G380D] | 0.656 | 0.418 | 0.734 | 0.888 | 0.608 | 0.583 | 0.783 | 0.464 | 0.479 | 11.1 | 0.98 | 0.769 | 9.16 | 0.645 | 7.4 | 0.487 |
| EKMWSYMKSAE [GRIA3_Y705] | 0.86 | 0.394 | 0.972 | 0.949 | 0.511 | 0.4 | 0.939 | 0.75 | 0.398 | 0.802 | 0.381 | 0.547 | 0.365 | 0.719 | 0.467 | 0.411 |
| FSNVLYRPRGP [TMIGD2_Y197_A202P_YF] | 0.794 | 0.506 | 0.693 | 0.674 | 0.429 | 0.399 | 0.549 | 0.444 | 0.397 | 0.438 | 0.434 | 0.568 | 0.479 | 0.959 | 0.463 | 0.367 |
| IEENGYNTYAS [FGF10_Y161] | 0.64 | 1.12 | 0.759 | 1.12 | 0.534 | 0.593 | 1.02 | 0.674 | 0.49 | 0.606 | 0.422 | 0.64 | 0.645 | 0.802 | 0.6 | 0.562 |

| Sequence | SH2 binding enrichment [1] | SH2 binding enrichment [2] | SH2 binding enrichment [3] | phosphorylation enrichment [4] | phosphorylation enrichment [5] | phosphorylation enrichment [6] | phosphorylation enrichment [7] | phosphorylation enrichment [8] | phosphorylation enrichment [9] | phosphorylation enrichment [10] | phosphorylation enrichment [11] | phosphorylation enrichment [12] | phosphorylation enrichment [13] | phosphorylation enrichment [14] | phosphorylation enrichment [15] | phosphorylation enrichment [16] |
| --- | --- | --- | --- | --- | --- | --- | --- | --- | --- | --- | --- | --- | --- | --- | --- | --- |
| YFCRWYRNRKS [EREG_Y144] | 0.623 | 0.571 | 0.716 | 0.635 | 0.621 | 0.572 | 0.864 | 0.515 | 0.478 | 0.618 | 0.889 | 0.714 | 0.741 | 0.683 | 0.753 | 0.61 |
| FKIFLYTLNDN [FN1_Y1975_YF] | 0.588 | 0.428 | 0.741 | 1.35 | 0.624 | 0.791 | 1.3 | 0.717 | 0.548 | 0.584 | 0.366 | 0.877 | 0.494 | 1.06 | 0.43 | 0.523 |
| SVTCTYSPTLN [TP53_Y126_A129T] | 0.551 | 0.469 | 0.639 | 1.58 | 0.92 | 0.682 | 1.48 | 0.912 | 0.667 | 0.566 | 0.503 | 0.926 | 0.625 | 1.4 | 0.58 | 0.606 |
| LIDSSYLTPTA [GREB1L_Y1063_R1066P] | 0.595 | 0.717 | 1.2 | 1.15 | 0.569 | 0.498 | 0.919 | 0.825 | 0.423 | 0.409 | 0.511 | 0.871 | 0.684 | 0.8 | 0.421 | 0.596 |
| ASKEPYFVHCI [MYO1D_Y585_R588H_YF] | 0.886 | 0.715 | 0.982 | 0.881 | 1.05 | 0.481 | 0.846 | 0.882 | 0.56 | 0.503 | 0.427 | 0.611 | 0.475 | 0.675 | 0.523 | 0.583 |
| TIWDSYTTNKV [GNB1_Y85_I80T] | 0.893 | 0.388 | 0.855 | 1.11 | 0.537 | 0.452 | 0.964 | 0.633 | 0.485 | 0.444 | 0.463 | 0.699 | 0.473 | 1.19 | 0.496 | 0.509 |
| KLIETCFSKNY [PLP1_Y50_Y50C] | 0.652 | 0.447 | 0.748 | 1.38 | 0.576 | 0.555 | 1.07 | 0.739 | 0.47 | 0.456 | 0.474 | 0.973 | 0.621 | 1.13 | 0.524 | 0.473 |
| VFDHIYTTQSD [RET_Y928_L923V] | 0.864 | 0.738 | 0.902 | 0.871 | 0.458 | 0.467 | 0.978 | 0.682 | 0.443 | 2.12 | 0.579 | 0.44 | 1.14 | 0.671 | 2.41 | 0.55 |
| HLDRSYSFSFS [PEAR1_Y890_R885H_YF] | 0.448 | 0.563 | 0.808 | 2.08 | 0.638 | 0.658 | 1.75 | 0.897 | 0.999 | 0.561 | 0.964 | 1.17 | 0.726 | 1.78 | 1.12 | 0.841 |
| HRFAAYFQQGD [GPI_Y351] | 0.77 | 0.662 | 0.97 | 1.79 | 0.88 | 0.759 | 1.17 | 0.897 | 0.496 | 0.633 | 0.643 | 0.979 | 0.501 | 1.59 | 0.609 | 0.962 |
| CTTIHYNYMRN [TP53_Y234_C238R] | 1.31 | 1.83 | 1.17 | 0.858 | 0.605 | 0.502 | 0.805 | 0.577 | 0.543 | 0.52 | 0.468 | 0.515 | 0.546 | 0.673 | 0.501 | 0.521 |
| LADKPYTFEDY [FXN_Y118] | 0.588 | 0.446 | 0.758 | 1.74 | 0.736 | 1.04 | 2.03 | 1.14 | 0.832 | 3.63 | 2.31 | 1.55 | 0.945 | 1.92 | 6.91 | 0.955 |
| SARFPYLMAEK [LDHB_Y173_R172P] | 0.523 | 0.579 | 0.912 | 0.687 | 0.373 | 0.416 | 0.604 | 0.455 | 0.389 | 0.315 | 0.325 | 0.361 | 0.422 | 0.504 | 0.483 | 0.387 |
| DENCFYTRAAS [RPS19_Y54_W52C] | 3.23 | 0.942 | 0.868 | 0.936 | 0.587 | 0.554 | 1 | 0.728 | 0.485 | 0.569 | 0.461 | 0.675 | 0.576 | 0.841 | 0.722 | 0.594 |
| IDAICYYRMEN [NPHS2_Y194] | 0.534 | 0.499 | 0.71 | 1.49 | 0.786 | 0.721 | 1.99 | 3.18 | 0.642 | 0.66 | 0.844 | 0.927 | 0.8 | 3.15 | 1.71 | 3.09 |
| MHDSNSVSKGS [PDGFRA_Y849_Y849S] | 0.595 | 0.465 | 0.787 | 0.523 | 0.282 | 0.374 | 0.445 | 0.329 | 0.392 | 0.381 | 0.448 | 0.424 | 0.432 | 0.687 | 0.428 | 0.402 |
